According to ChEMBL document CHEMBL1268867, “ATPases as drug targets: insights from heat shock proteins 70 and 90” (J Med Chem, 2010):

Columns and labels:
[1] = substrate: Nc1ncnc2c1ncn2[C@@H]1O[C@H](COP(=O)(O)OP(=O)(O)OP(=O)(O)O)[C@@H](O)[C@H]1O; assay: Binding affinity to CHK1
[2] = substrate: Nc1ncnc2c1ncn2[C@@H]1O[C@H](COP(=O)(O)OP(=O)(O)OP(=O)(O)O)[C@@H](O)[C@H]1O; assay: Binding affinity to aurora B
[3] = substrate: Nc1ncnc2c1ncn2[C@@H]1O[C@H](COP(=O)(O)OP(=O)(O)OP(=O)(O)O)[C@@H](O)[C@H]1O; assay: Binding affinity to Akt2

B1: Serine/threonine-protein kinase Chk1 (Homo sapiens), O14757 (protein)
chain: MAVPFVEDWDLVQTLGEGAYGEVQLAVNRVTEEAVAVKIVDMKRAVDCPENIKKEICINKMLNHENVVKFYGHRREGNIQYLFLEYCSGGELFDRIEPDIGMPEPDAQRFFHQLMAGVVYLHGIGITHRDIKPENLLLDERDNLKISDFGLATVFRYNNRERLLNKMCGTLPYVAPELLKRREFHAEPVDVWSCGIVLTAMLAGELPWDQPSDSCQEYSDWKEKKTYLNPWKKIDSAPLALLHKILVENPSARITIPDIKKDRWYNKPLKKGAKRPRVTSGGVSESPSGFSKHIQSNLDFSPVNSASSEENVKYSSSQPEPRTGLSLWDTSPSYIDKLVQGISFSQPTCPDHMLLNSQLLGTPGSSQNPWQRLVKRMTRFFTKLDADKSYQCLKETCEKLGYQWKKSCMNQVTISTTDRRNNKLIFKVNLLEMDDKILVDFRLSKGDGLEFKRHFLKIKGKLIDIVSSQKIWLPAT
Km [1]: 1.4 µM

B2: Aurora kinase B (Homo sapiens), Q96GD4 (protein)
chain: MAQKENSYPWPYGRQTAPSGLSTLPQRVLRKEPVTPSALVLMSRSNVQPTAAPGQKVMENSSGTPDILTRHFTIDDFEIGRPLGKGKFGNVYLAREKKSHFIVALKVLFKSQIEKEGVEHQLRREIEIQAHLHHPNILRLYNYFYDRRRIYLILEYAPRGELYKELQKSCTFDEQRTATIMEELADALMYCHGKKVIHRDIKPENLLLGLKGELKIADFGWSVHAPSLRRKTMCGTLDYLPPEMIEGRMHNEKVDLWCIGVLCYELLVGNPPFESASHNETYRRIVKVDLKFPASVPMGAQDLISKLLRHNPSERLPLAQVSAHPWVRANSRRVLPPSALQSVA
Km [2]: 34 µM

B3: RAC-beta serine/threonine-protein kinase (Homo sapiens), P31751 (protein)
chain: MNEVSVIKEGWLHKRGEYIKTWRPRYFLLKSDGSFIGYKERPEAPDQTLPPLNNFSVAECQLMKTERPRPNTFVIRCLQWTTVIERTFHVDSPDEREEWMRAIQMVANSLKQRAPGEDPMDYKCGSPSDSSTTEEMEVAVSKARAKVTMNDFDYLKLLGKGTFGKVILVREKATGRYYAMKILRKEVIIAKDEVAHTVTESRVLQNTRHPFLTALKYAFQTHDRLCFVMEYANGGELFFHLSRERVFTEERARFYGAEIVSALEYLHSRDVVYRDIKLENLMLDKDGHIKITDFGLCKEGISDGATMKTFCGTPEYLAPEVLEDNDYGRAVDWWGLGVVMYEMMCGRLPFYNQDHERLFELILMEEIRFPRTLSPEAKSLLAGLLKKDPKQRLGGGPSDAKEVMEHRFFLSINWQDVVQKKLLPPFKPQVTSEVDTRYFDDEFTAQSITITPPDRYDSLGLLELDQRTHFPQFSYSASIRE
Km [3]: 254 µM
